This note sets out measurements from patent publication US20210395381A1 (OSSIANIX, published 2021).

Residue numbers refer to the chain shown, from its start.

The chains are these.
B1: Clone 8.93 (VNAR)
VNAR: ARVDQTPQTITKETGESLTINCVLRDSNCALPSTYWYRKKSGSTNEESISKGGRYVETVNSGSKSFSLRINDLTVEDSGTYRCKVIAQQSSILRGCNYRKHDVYGDGTAVTVNA
notes: VNAR on phage; Clone 8 framework
B2: Clone 8.121 (VNAR)
VNAR: B1 VNAR with Q88T, Q89L, S90G
notes: as for B1
B3: Clone 8.131 (VNAR)
VNAR: B1 VNAR with Q89L, R99L, K100D, H101L
notes: as for B1
B4: Clone 8.109 (VNAR)
VNAR: B1 VNAR with Q89L, R99T, K100L, H101Y
notes: as for B1
B5: Clone 8.120 (VNAR)
VNAR: B1 VNAR with Q89L, I92Y, L93R, R94P
notes: VNAR on phage; Clone 8 framework; same CDR3 as 8.113
B6: Clone 8.141 (VNAR)
VNAR: B1 VNAR with Q88K, Q89A
notes: as for B1
B7: Clone 8.95 (VNAR)
VNAR: B1 VNAR with Q89L, R94L, G95K, N97E
notes: as for B1
B8: Clone 8.106 (VNAR)
VNAR: B1 VNAR with I86V, Q89L, I92H, L93Y, R94D
notes: as for B1
B9: Clone 8.99 (VNAR)
VNAR: B1 VNAR with I86L, A87F, Q88D, Q89L
notes: as for B1
B10: Clone 8.134 (VNAR)
VNAR: B1 VNAR with I86D, A87L, Q88T, Q89L
notes: as for B1
B11: Clone 8.102 (VNAR)
VNAR: B1 VNAR with Q89L, N97A, Y98G, R99V
notes: as for B1
B12: Clone 8.138 (VNAR)
VNAR: B1 VNAR with Q89L, I92L, L93S, R94F
notes: as for B1
B13: Clone 8.123 (VNAR)
VNAR: B1 VNAR with Q89L, L93M, R99I, K100M, H101R
notes: as for B1
B14: Clone 8.139 (VNAR)
VNAR: B1 VNAR with I86D, Q88H, Q89L
notes: as for B1
B15: Clone 8.103 (VNAR)
VNAR: B1 VNAR with Q89L, N97K, Y98Q, R99F, K100E, H101Y
notes: as for B1
B16: Clone 8.107 (VNAR)
VNAR: B1 VNAR with Q89L, R94F, R99F, H101N
notes: as for B1
B17: Clone 8.126 (VNAR)
VNAR: B1 VNAR with S90D, S91Q, I92D
notes: as for B1
B18: Clone 8.94 (VNAR)
VNAR: B1 VNAR with Q88D, Q89V, S90G
notes: as for B1
B19: Clone 8.110 (VNAR)
VNAR: B1 VNAR with Q89L, S90K, S91W, I92G
notes: as for B1
B20: Clone 8.124 (VNAR)
VNAR: B1 VNAR with Q89L, I92V, L93K, R94D
notes: as for B1
B21: Clone 8.118 (VNAR)
VNAR: B1 VNAR with Q89L, I92R, L93A, R94M
notes: as for B1
B22: Clone 8.130 (VNAR)
VNAR: B1 VNAR with Q89L, R99A, K100H, H101L
notes: as for B1
B23: Clone 8.119 (VNAR)
VNAR: B1 VNAR with Q89L, I92V, L93F, R94I
notes: as for B1
B24: Clone 8.136 (VNAR)
VNAR: B1 VNAR with Q89L, I92A, L93G, R94I
notes: as for B1
B25: Clone 8.140 (VNAR)
VNAR: B1 VNAR with Q88I, Q89T, S90L
notes: as for B1
B26: Clone 8.105 (VNAR)
VNAR: B1 VNAR with I86V, Q88L, S90E
notes: as for B1
B27: Clone 8.104 (VNAR)
VNAR: B1 VNAR with Q89L, I92R, L93E, R94L
notes: VNAR on phage; Clone 8 framework; same CDR3 as 8.133
B28: Clone 8.117 (VNAR)
VNAR: B1 VNAR with Q89L, R94A, G95L, N97M
notes: as for B1
B29: Clone 8.98 (VNAR)
VNAR: B1 VNAR with I86L, A87E, Q88K, Q89L
notes: as for B1
B30: Clone 8.125 (VNAR)
VNAR: B1 VNAR with Q89L, I92Y, L93E, R94T
notes: as for B1
B31: Clone 8.133 (VNAR)
VNAR: B1 VNAR with Q89L, I92R, L93E, R94L
notes: VNAR on phage; Clone 8 framework; same CDR3 as 8.104
B32: Clone 8.111 (VNAR)
VNAR: B1 VNAR with Q89L, R99D, K100V, H101N
notes: as for B1
B33: Clone 8.116 (VNAR)
VNAR: B1 VNAR with Q89L, S90N, S91H, I92Y
notes: as for B1
B34: Clone 8.132 (VNAR)
VNAR: B1 VNAR with Q89L, R99M, K100H, H101P
notes: as for B1
B35: Clone 8.96 (VNAR)
VNAR: B1 VNAR with Q89L, I92M, L93Y, R94K
notes: as for B1
B36: Clone 8.127 (VNAR)
VNAR: B1 VNAR with Q88K, Q89P, S90N
notes: as for B1
B37: Clone 8.135 (VNAR)
VNAR: B1 VNAR with Q89L, S90F, S91P, I92P
notes: as for B1
B38: Clone 8.100 (VNAR)
VNAR: B1 VNAR with I86P, A87H, Q88M, Q89L
notes: as for B1
B39: Clone 8.115 (VNAR)
VNAR: B1 VNAR with Q88L, Q89H, S90R
notes: as for B1
B40: Clone 8.101 (VNAR)
VNAR: B1 VNAR with Q89L, S90H, S91T, I92H
notes: as for B1
B41: Clone 8.129 (VNAR)
VNAR: B1 VNAR with Q89L, Y98Q, R99P
notes: as for B1
B42: Clone 8.108 (VNAR)
VNAR: B1 VNAR with Q89L, R99K, K100N, H101V
notes: as for B1
B43: Clone 8.113 (VNAR)
VNAR: B1 VNAR with Q89L, I92Y, L93R, R94P
notes: VNAR on phage; Clone 8 framework; same CDR3 as 8.120
B44: Clone 8.128 (VNAR)
VNAR: B1 VNAR with Q89L, S90I, S91K, I92N
notes: as for B1
B45: Clone 8.122 (VNAR)
VNAR: B1 VNAR with Q89L, K100A, H101S
notes: as for B1
B46: Clone 8.114 (VNAR)
VNAR: B1 VNAR with Q89P, R99G, H101L
notes: as for B1
B47: Clone 8.112 (VNAR)
VNAR: B1 VNAR with Q89L, I92V, L93Y, R94K
notes: as for B1

T2 sequence (P02786 89-760 limits assumed): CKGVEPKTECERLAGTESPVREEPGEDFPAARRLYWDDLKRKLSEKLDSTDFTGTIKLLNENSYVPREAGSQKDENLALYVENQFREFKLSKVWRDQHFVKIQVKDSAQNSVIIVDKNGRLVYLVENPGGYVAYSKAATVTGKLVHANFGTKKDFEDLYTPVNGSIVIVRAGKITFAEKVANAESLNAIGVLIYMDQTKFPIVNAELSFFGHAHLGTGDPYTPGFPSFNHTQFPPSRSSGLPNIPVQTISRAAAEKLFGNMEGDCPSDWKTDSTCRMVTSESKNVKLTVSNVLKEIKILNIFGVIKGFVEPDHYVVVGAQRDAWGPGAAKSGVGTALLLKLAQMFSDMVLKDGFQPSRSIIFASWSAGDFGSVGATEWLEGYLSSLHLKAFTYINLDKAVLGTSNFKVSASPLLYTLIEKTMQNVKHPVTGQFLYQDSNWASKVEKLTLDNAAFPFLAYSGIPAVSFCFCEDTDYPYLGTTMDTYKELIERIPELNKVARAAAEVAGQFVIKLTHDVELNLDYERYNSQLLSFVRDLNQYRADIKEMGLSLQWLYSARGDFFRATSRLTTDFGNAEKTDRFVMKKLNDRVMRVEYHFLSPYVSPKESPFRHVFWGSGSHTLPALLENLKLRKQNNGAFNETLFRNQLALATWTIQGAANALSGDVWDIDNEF
T1 sequence (Q62351 89-763 limits assumed): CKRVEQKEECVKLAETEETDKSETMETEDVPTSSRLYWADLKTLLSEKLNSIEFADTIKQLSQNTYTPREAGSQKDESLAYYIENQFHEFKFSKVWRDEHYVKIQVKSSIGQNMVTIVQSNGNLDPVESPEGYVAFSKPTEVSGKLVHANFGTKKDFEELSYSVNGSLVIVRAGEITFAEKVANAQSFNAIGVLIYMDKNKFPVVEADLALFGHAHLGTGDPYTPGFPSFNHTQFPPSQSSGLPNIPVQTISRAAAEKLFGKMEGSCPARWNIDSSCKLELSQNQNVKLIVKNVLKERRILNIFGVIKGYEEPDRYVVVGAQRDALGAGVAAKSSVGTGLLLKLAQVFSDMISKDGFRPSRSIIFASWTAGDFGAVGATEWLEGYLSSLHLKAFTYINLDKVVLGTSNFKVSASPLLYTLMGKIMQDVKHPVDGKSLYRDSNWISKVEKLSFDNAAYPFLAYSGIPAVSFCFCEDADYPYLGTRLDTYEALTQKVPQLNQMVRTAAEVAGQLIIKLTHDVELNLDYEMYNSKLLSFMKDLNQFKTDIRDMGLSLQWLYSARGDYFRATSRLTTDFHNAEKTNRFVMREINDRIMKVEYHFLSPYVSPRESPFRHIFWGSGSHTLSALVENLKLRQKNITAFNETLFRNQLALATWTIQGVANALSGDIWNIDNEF

The first assay concerns the target T1, recombinant mouse TfR-1 (mouse, UniProt Q62351 89-763).
T1 construct: Recombinant protein coated at 1 ug/ml in the phage ELISA; also called mTfR1; mouse transferrin receptor-1
Description: phage ELISA. For orientation: ELISA stands for enzyme-linked immunosorbent assay.
B1: the A450 was 0.055 A450.

For B2, the A450 was 0.049 A450.

For the molecule B3, the A450 was determined as 0.047 A450.

Turning to B4, the A450 came out at 0.051 A450.

As to B5, the A450 was 0.049 A450.

Consider B6, for which the A450 came to 0.045 A450.

On to B7, for which the A450 was 0.054 A450.

Regarding B8, the A450 was 0.051 A450.

With B9, the A450 was 0.053 A450.

Take B10: the A450 amounted to 0.046 A450.

As to B11, the A450 was 0.052 A450.

For B12, the A450 came out at 0.046 A450.

On to B13, for which the A450 turned out to be 0.048 A450.

Turning to B14, the A450 was 0.045 A450.

On to B15, for which the A450 amounted to 0.052 A450.

Consider B16, for which the A450 was 0.051 A450.

Take B17: the A450 stood at 0.048 A450.

B18: the A450 amounted to 0.054 A450.

Regarding B19, the A450 came to 0.05 A450.

Consider B20, for which the A450 was 0.048 A450.

Regarding B21, the A450 came to 0.049 A450.

As for B22, the A450 is 0.047 A450.

Consider B23, for which the A450 was found to be 0.049 A450.

Consider B24, for which the A450 came out at 0.046 A450.

On to B25, for which the A450 was 0.045 A450.

For the molecule B26, the A450 was 0.051 A450.

As for B27, the A450 is 0.052 A450.

For B28, the A450 is 0.049 A450.

For the molecule B29, the A450 was determined as 0.053 A450.

As to B30, the A450 was determined as 0.048 A450.

For B31, the A450 was determined as 0.047 A450.

B32: the A450 stood at 0.05 A450.

Take B33: the A450 stood at 0.049 A450.

Turning to B34, the A450 came out at 0.047 A450.

With B35, the A450 was 0.054 A450.

Consider B36, for which the A450 was 0.047 A450.

Take B37: the A450 was determined as 0.046 A450.

As to B38, the A450 is 0.053 A450.

In the case of B39, the A450 was 0.049 A450.

As to B40, the A450 was found to be 0.052 A450.

Regarding B41, the A450 is 0.047 A450.

Take B42: the A450 is 0.051 A450.

As to B43, the A450 is 0.05 A450.

On to B44, for which the A450 turned out to be 0.047 A450.

Regarding B45, the A450 stood at 0.048 A450.

In the case of B46, the A450 is 0.05 A450.

Take B47: the A450 amounted to 0.05 A450.

A further assay has as its target T2, recombinant human TfR-1 (human, UniProt P02786 89-760).
T2 construct: Recombinant protein coated at 1 ug/ml in the phage ELISA; also called hTfR1; human transferrin receptor-1
Kind of assay: phage ELISA.
Take B1: the A450 was determined as 0.05 A450.

As for B2, the A450 was 0.049 A450.

As for B3, the A450 was 0.066 A450.

As for B4, the A450 was determined as 0.055 A450.

In the case of B5, the A450 was 0.048 A450.

Consider B6, for which the A450 was 0.051 A450.

With B7, the A450 was 0.049 A450.

On to B8, for which the A450 came to 0.054 A450.

For the molecule B9, the A450 was 0.059 A450.

B10: the A450 was 0.053 A450.

As to B11, the A450 amounted to 0.049 A450.

For B12, the A450 was 0.047 A450.

For the molecule B13, the A450 is 0.048 A450.

Turning to B14, the A450 stood at 0.05 A450.

On to B15, for which the A450 was 0.05 A450.

With B16, the A450 was determined as 0.048 A450.

Take B17: the A450 is 0.05 A450.

Consider B18, for which the A450 worked out at 0.06 A450.

As to B19, the A450 amounted to 0.055 A450.

In the case of B20, the A450 was found to be 0.049 A450.

Regarding B21, the A450 came out at 0.051 A450.

In the case of B22, the A450 came out at 0.049 A450.

With B23, the A450 stood at 0.045 A450.

Take B24: the A450 came out at 0.055 A450.

Turning to B25, the A450 was determined as 0.053 A450.

Take B26: the A450 was determined as 0.047 A450.

With B27, the A450 came out at 0.05 A450.

As for B28, the A450 is 0.056 A450.

Consider B29, for which the A450 was 0.055 A450.

Consider B30, for which the A450 turned out to be 0.05 A450.

On to B31, for which the A450 amounted to 0.047 A450.

On to B32, for which the A450 turned out to be 0.056 A450.

For B33, the A450 is 0.066 A450.

Turning to B34, the A450 worked out at 0.053 A450.

Turning to B35, the A450 amounted to 0.051 A450.

Consider B36, for which the A450 was 0.047 A450.

In the case of B37, the A450 was 0.058 A450.

Regarding B38, the A450 was found to be 0.048 A450.

Consider B39, for which the A450 stood at 0.047 A450.

For the molecule B40, the A450 is 0.048 A450.

For B41, the A450 was found to be 0.047 A450.

With B42, the A450 was 0.044 A450.

In the case of B43, the A450 was determined as 0.051 A450.

For B44, the A450 was determined as 0.051 A450.

B45: the A450 is 0.047 A450.

Turning to B46, the A450 turned out to be 0.058 A450.

For the molecule B47, the A450 amounted to 0.05 A450.
